Test results taken from US20140017790A1, “CONTROL AGENT FOR CONTROLLING UNDIFFERENTIATED STATE AND USE THEREOF” (RIKEN, priority 2011, published 2014).

Legend:
Format in all cases: cell-based
STAT3 = assay: Western blotting, phosphorylation of STAT3 in human iPS cells; conditions: feeder conditions, 6 days, negative control (bFGF) = 1
Experimental: The human iPS cells were cultured under feeder conditions in the same manner as in Example 8, and the feeder cells were removed 6 days after the start of the culture. Then, in the same manner as in Example 3, the cultured human iPS cells were washed, suspended, homogenized, and centrifuged to collect the supernatant as a cell extract. Thereafter, a target protein was detected by Western blotting in the same manner as in Example 3, except that the above supernatant was used. Furthermore, as a negative control, the target protein was detected by carrying out the same procedures except that bFGF was added instead of the CCL2.
Then, the ratio of the phosphorylated STAT3 to the non-phosphorylated STAT3 (pSTAT3/STAT3) was determined. Assuming that the value of pSTAT3/STAT3 in the negative control was “1”, the relative value was calculated.

mouse iPS cells = assay: quantitative RT-PCR of undifferentiated marker genes, recombinant CCL2 added to mouse iPS cells under feeder free conditions
Experimental: A PrimeScript RT-PCR Kit (trade name, TAKARA BIO INC.), an ABI 7500 Fast real time PCR system (trade name, Applied BioSystems), and a SYBR (registered trademark) Premix Ex Taq (trade name, TAKARA BIO INC.) were used in accordance with their protocols. PCR was carried out by conducting 40 cycles of treatment with a treatment at 94° C. for 5 second and at 62.5° C. for 20 seconds as 1 cycle. The expression level of each gene was calculated by normalizing the relative amount of mRNA in the gene to Gapdh mRNA according to the 2^−ΔΔ^CT method (Thomse R, Solvsten C A, Linnet T E, et al., Analysis of qPCR data by converting exponentially related Ct values into linearly related XO values. J Bioinform Comput Biol 2010: 8: 885-900.).
The medium of a negative control used was the above-described DMEM containing the above-described LIF. […]
Furthermore, after the culture of the mouse iPS cells, the expression level of the Tbx3 gene was determined in the same manner as in the item (1) of Example 1. Then, the fold change in expression level relative to the negative control was calculated. […]
The mouse iPS cells cultured under the feeder free conditions were cultured in the medium of the example and the medium of the comparative example, respectively. […] 24 hours after the culture, the expression levels of the undifferentiated marker genes were determined in the same manner as in the item (1) of Example 1. […]

AKT = assay: Western blotting, phosphorylation of AKT in human iPS cells; conditions: feeder conditions, 6 days, versus negative control (bFGF)
Experimental: With respect to the supernatant prepared in the above item (1), the target protein detection was carried out in the same manner as in Example 4. Furthermore, as a negative control, the target protein detection was carried out in the same manner, except that bFGF was added instead of the CCL2.
(§1) Then, the ratio of the phosphorylated AKT to the non-phosphorylated AKT (p-AKT/AKT) was determined. Assuming that the value of the p-AKT/AKT in the negative control was “1”, the relative value was calculated. Also, the ratio of the KLF4 gene expression to the GAPDH gene expression (KLF4/GAPDH) was determined. Assuming that KLF4/GAPDH in the negative control was “1”, the relative value was calculated.

human iPS cells = assay: phase-contrast morphology of human iPS cells with JAK or PI3K inhibitor; conditions: inhibitor not added (DMSO added), 6 days; bFGF(+)/CCL2(-) or bFGF(-)/CCL2(+)
Experimental: As a JAK inhibitor, a JAK inhibitor I (Merck) was used. As PI3K inhibitor, the same LY294002 as used in Example 4 was used. Human iPS cells were cultured for 6 days under feeder conditions in the same manner as in the above item (1), except that not only the CCL2 but also the JAK inhibitor or the PI3K inhibitor further was added to the medium. In the medium, the concentration of the Jak inhibitor was set to 10 ng/ml, and the concentration of the PI3K inhibitor was set to 5 ng/ml.
Furthermore, as a control, the cells were cultured in the same manner as in the above using the following media, respectively: a medium containing bFGF instead of the CCL2 and containing DMSO (5 ng/ml) instead of the inhibitor; and a medium containing bFGF (5 ng/ml) instead of the CCL2 and containing the inhibitor.
The phase-contrast micrographs show the results obtained under the conditions of, from the above: the inhibitor not added (DMSO added); the JAK inhibitor added; and the PI3K inhibitor added.

KLF4 = assay: KLF4/GAPDH ratio in human iPS cells; conditions: feeder conditions, 6 days, negative control (bFGF) = 1
Experimental: as §1
Also, the ratio of KLF4 to GAPDH (KLF4/GAPDH) was determined. Assuming that KLF4/GAPDH in the negative control was “1”, the relative value was calculated. FIG. 15D is a graph showing the relative value of the ratio of KLF4 to GAPDH (KLF4/GAPDH).

B1: CCL2: mouse recombinant CCL2 (MCP-1, #479-JE-010, R&D Systems); in Examples 1, 3, 4(1), 5 mouse CCL2 (SEQ ID NO: 3) overexpressed from Ccl2 expression vector (protein, listed as Mus musculus)
chain: MQVPVMLLGLLFTVAGWSIHVLAQPDAVNAPLTCCYSFTSKMIPMSRLESYKRITSSRCPKEAVVFVTKLKREVCADPKKEWVQTYIKNLDRNQMRSEPTTLFKTASALRSSAPLNVKLTRKSEANASTTFSTTTSSTSVGVTSVTVN
- ratio of phosphorylated STAT3 to non-phosphorylated STAT3 (pSTAT3/STAT3), relative value (STAT3): about 7.5 fold
- expression level of the Tbx3 gene (mouse iPS cells; recombinant CCL2 500 ng/ml added to PI3K inhibitor 5 ng/ml + LIF 25 units/ml): further increase
- expression of each undifferentiated marker gene (mouse iPS cells; recombinant CCL2 2500 ng/ml, no LIF, feeder free, 24 hours, relative to LIF 1000 units/ml): increased markedly
- phosphorylation of AKT (pAKT/AKT) (AKT): not promoted
- undifferentiation potency, cell morphology (human iPS cells): little differentiated cells
- KLF4 expression (KLF4/GAPDH), relative value (KLF4): about 1.7 fold
